In patent US20090172832A1 (published 2009):

Biological target: T1, R. rubrum RUBISCO LSU (RRrbcLSU, product of the RRrbcM gene) (Rhodospirillum rubrum, UniProt Q2RRP5 1-466)
T1 construct: The purified R. rubrum RUBISCO used as blot control is filed under this molecule too; also called R. rubrum RUBISCO protein; 55-kD RUBISCO-like protein
T1 sequence: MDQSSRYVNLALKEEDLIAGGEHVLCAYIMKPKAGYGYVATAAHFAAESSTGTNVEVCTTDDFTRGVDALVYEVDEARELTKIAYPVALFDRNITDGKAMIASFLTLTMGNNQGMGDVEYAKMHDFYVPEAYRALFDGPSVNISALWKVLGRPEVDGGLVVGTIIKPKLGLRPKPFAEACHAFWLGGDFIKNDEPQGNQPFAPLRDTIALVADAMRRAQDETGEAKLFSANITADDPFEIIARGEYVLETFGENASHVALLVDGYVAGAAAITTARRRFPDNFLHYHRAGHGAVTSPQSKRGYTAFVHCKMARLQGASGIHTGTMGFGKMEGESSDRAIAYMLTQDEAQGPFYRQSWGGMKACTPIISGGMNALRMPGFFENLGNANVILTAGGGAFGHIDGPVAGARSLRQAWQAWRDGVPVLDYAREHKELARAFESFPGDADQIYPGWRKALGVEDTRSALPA
Test: SDS-PAGE of crude leaf extract of plant 1074 (Coomassie stain); inferred because SSU did not accumulate

binding result: no binding
B1: endogenous tobacco RUBISCO small subunit (SSU) (enzyme, Nicotiana tabacum, UniProt P69249 58-180, looked up)
chain: MQVWPPINKKKYETLSYLPDLSQEQLLSEVEYLLKNGWVPCLEFETEHGFVYRENNKSPGYYDGRYWTMWKLPMFGCTDATQVLAEVEEAKKAYPQAWIRIIGFDNVRQVQCISFIAYKPEGY
notes: Endogenous protein in leaf extracts; also called endogenous SSU; tobacco SSU
